Reference: patent US12269859B2, “Synthetic immune receptors and methods of use thereof” (Angeles Therapeutics, Inc., priority 2016, dated 2025)

System: target antigen-expressing cell line
Assay: Jurkat NFAT-GFP assay, coculture with target cell lines expressing the respective target antigen (summary Table 10A)
Assay type: cell-based, human
Design: key: The signs +/−, +, 2+ etc. after the name of the cell lines indicate the relative degree of positivity on the Jurkat-NFAT-GFP assay as measured by the % GFP positive cells; +: relative degree of positivity on the Jurkat-NFAT-GFP assay as measured by the % GFP positive cells; 2+: relative degree of positivity on the Jurkat-NFAT-GFP assay as measured by the % GFP positive cells
In short: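 Coculture of SIR-bearing Jurkat NFAT-GFP reporters with target cells, ~1:2 E:T, ~4–18 h. FACS quantified % GFP+ cells, ranked semi-quantitatively against parental Jurkat-NFAT-GFP.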

[1] = coculture with TF228.1.1.6 cells

| Molecule | NFAT-GFP ASSAY Positive Cell lines (coculture with HL2-3 cells) | NFAT-GFP ASSAY Positive Cell lines [1] | NFAT-GFP ASSAY Positive Cell lines (coculture with U266 cells) | NFAT-GFP ASSAY Positive Cell lines (coculture with U87-MG (U87MG) cells) |
| --- | --- | --- | --- | --- |
| 121416-H05 (protein, Polynucleotide encoding a Synthetic Immune Receptor (SIR)) MALPVTALLLPLALLLHAARPLEGKPIPNPLLGLDSTGSGEDLKNVFPPEVAVFEPSKAEIAHTQKATLVCLATGFYPDHVELSWWVNGKEVHSGVCTDPQPLKEQPALNDSRYCLSSRLRVSATFWQNPRNHFRCQVQFYGLSENDEWTQDRAKPVTQIVSAEAWGRADCGITSASYHQGVLSATILYEILLGKATLYAVLVSALVLMAMVKRKDSRGRAKRSGSGATNFSLLKQAGDVEENPGPTSMALPVTALLLPLALLLHAARPDYIHVTQSPSSLSVSIGDRVTINCQTSQGVGSDLHWYQHKPGRAPKLLIHHASSVEDGVPSRFSGTGFHTSFNLTINDLQADDIGTYYCQVLQSFGRGSRLDTKGGGGSGGGGSGGGGSRAHLVQSGTAMKKPGASVRVSCQTSGYTFTAHILFWFRQAPGRGLEWVGWIKPQYGAVNFGGGFRDRVTLTRDVYREIAYMDIRGLKPDDTAVYYCARDRSYGDSSWALDAWGQGTTVVVSATREQKLISEEDGSGIQNPDPAVYQLRDSKSSDKSVCLFTDFDSQTNVSQSKDSDVYITDKCVLDMRSMDFKSNSAVAWSNKSDFACANAFNNSIIPEDTFFPSSDVPCDVKLVEKSFETDTNLNFQNLSVIGFRILLLKVAGFNLLMTLRLWSSRAKRSGSGVKQTLNFDLLKLAGDVESNPGPSRGHMTEYKPTVRLATRDDVPRAVRTLAAAFADYPATRHTVDPDRHIERVTELQELFLTRVGLDIGKVWVADDGAAVAVWTTPESVEAGAVFAEIGPRMAELSGSRLAAQQQMEGLLAPHRPKEPAWFLATVGVSPDHQGKGLGSAVVLPGVEAAERAGVPAFLETSAPRNLPFYERLGFTVTADVEVPEGPRTWCMTRKPGA | HL2-3 (+/−), | TF228.1.1.6 (+/−) |  |  |
| 071417-W08 (protein) MALPVTALLLPLALLLHAARPLEGKPIPNPLLGLDSTGSGEDLKNVFPPEVAVFEPSKAEIAHTQKATLVCLATGFYPDHVELSWWVNGKEVHSGVCTDPQPLKEQPALNDSRYCLSSRLRVSATFWQNPRNHFRCQVQFYGLSENDEWTQDRAKPVTQIVSAEAWGRADCGITSASYHQGVLSATILYEILLGKATLYAVLVSALVLMAMVKRKDSRGRAKRSGSGATNFSLLKQAGDVEENPGPTSMALPVTALLLPLALLLHAARPDVMLTQTPLSLPVSLGDQASISCRSSQSILHSTGDTYLEWYLQKPGQSPKLLINKVSNRLSGVPDRFSGSGSGTDFTLKISRVEAEDLGVYYCFQGSHVPWTFGGGTKLEIKRADAAPTVSIFPGGGGSGGGGSGGGGSQVKLQQSGPSLVKPGASVKMSCKASGYTFTDFYMKWVKQSHGKSLEWIGDINPNIGDTFYNQKFKGKATLTVDKSSSTAYMQLNSLTSEDSAVYFCSVGYFDVWGAGTTVTVSSTREQKLISEEDGSGIQNPDPAVYQLRDSKSSDKSVCLFTDFDSQTNVSQSKDSDVYITDKCVLDMRSMDFKSNSAVAWSNKSDFACANAFNNSIIPEDTFFPSSDVPCDVKLVEKSFETDTNLNFQNLSVIGFRILLLKVAGFNLLMTLRLWSSRAKRSGSGVKQTLNFDLLKLAGDVESNPGPSRGHMTEYKPTVRLATRDDVPRAVRTLAAAFADYPATRHTVDPDRHIERVTELQELFLTRVGLDIGKVWVADDGAAVAVWTTPESVEAGAVFAEIGPRMAELSGSRLAAQQQMEGLLAPHRPKEPAWFLATVGVSPDHQGKGLGSAVVLPGVEAAERAGVPAFLETSAPRNLPFYERLGFTVTADVEVPEGPRTWCMTRKPGA |  |  | U266 (+/−) |  |
| 042916-B04 (protein, Synthetic Immune Receptor (SIR)) MALPVTALLLPLALLLHAARPLEGKPIPNPLLGLDSTGSGEDLKNVFPPEVAVFEPSKAEIAHTQKATLVCLATGFYPDHVELSWWVNGKEVHSGVCTDPQPLKEQPALNDSRYCLSSRLRVSATFWQNPRNHFRCQVQFYGLSENDEWTQDRAKPVTQIVSAEAWGRADCGITSASYHQGVLSATILYEILLGKATLYAVLVSALVLMAMVKRKDSRGRAKRSGSGATNFSLLKQAGDVEENPGPTSTMALPVTALLLPLALLLHAARPDIQMTQSPSSLSASVGDRVTITCTASLSVSSTYLHWYQQKPGSSPKLWIYSTSNLASGVPSRFSGSGSGTSYTLTISSLQPEDFATYYCHQYHRSPLTFGGGTKVEIKRGGGGSGGGGSGGGGSEVQLVESGGGLVQPGGSLRLSCAASGFSLTKYGVHWVRQAPGKGLEWVGVKWAGGSTDYNSALMSRFTISKDNAKNSLYLQMNSLRAEDTAVYYCARDHRDAMDYWGQGTLVTVSSTREQKLISEEDGSGIQNPDPAVYQLRDSKSSDKSVCLFTDFDSQTNVSQSKDSDVYITDKCVLDMRSMDFKSNSAVAWSNKSDFACANAFNNSIIPEDTFFPSSDVPCDVKLVEKSFETDTNLNFQNLSVIGFRILLLKVAGFNLLMTLRLWSSRAKRSGSGVKQTLNFDLLKLAGDVESNPGPSRGHMTEYKPTVRLATRDDVPRAVRTLAAAFADYPATRHTVDPDRHIERVTELQELFLTRVGLDIGKVWVADDGAAVAVWTTPESVEAGAVFAEIGPRMAELSGSRLAAQQQMEGLLAPHRPKEPAWFLATVGVSPDHQGKGLGSAVVLPGVEAAERAGVPAFLETSAPRNLPFYERLGFTVTADVEVPEGPRTWCMTRKPGA |  |  |  | U87MG |
| 121416-D03 (protein, Synthetic Immune Receptor (SIR)) MALPVTALLLPLALLLHAARPLEQKLISEEDLGSGDRPDPAVYQLRDSKSSDKSVCLFTDFDSQTNVSQSKDSDVYITDKCVLDMRSMDFKSNSAVAWSNKSDFACANAFNNSIIPEDTFFPSPESSCDVKLVEKSFETDTNLNFQNLSVIGFRILLLKVAGFNLLMTLRLWSSSSRAKRSGSGVKQTLNFDLLKLAGDVESNPGPTSMALPVTALLLPLALLLHAARPDYIHVTQSPSSLSVSIGDRVTINCQTSQGVGSDLHWYQHKPGRAPKLLIHHASSVEDGVPSRFSGTGFHTSFNLTINDLQADDIGTYYCQVLQSFGRGSRLDTKGGGGSGGGGSGGGGSRAHLVQSGTAMKKPGASVRVSCQTSGYTFTAHILFWFRQAPGRGLEWVGWIKPQYGAVNFGGGFRDRVTLTRDVYREIAYMDIRGLKPDDTAVYYCARDRSYGDSSWALDAWGQGTTVVVSATRGKPIPNPLLGLDSTGSGEDLKNVFPPEVAVFEPSEAEISHTQKATLVCLATGFYPDHVELSWWVNGKEVHSGVCTDPQPLKEQPALNDSRYCLSSRLRVSATFWQNPRNHFRCQVQFYGLSENDEWTQDRAKPVTQIVSAEAWGRADCGFTSESYQQGVLSATILYEILLGKATLYAVLVSALVLMAMVKRKDSRGRAKRSGSGATNFSLLKQAGDVEENPGPSRGHMTEYKPTVRLATRDDVPRAVRTLAAAFADYPATRHTVDPDRHIERVTELQELFLTRVGLDIGKVWVADDGAAVAVWTTPESVEAGAVFAEIGPRMAELSGSRLAAQQQMEGLLAPHRPKEPAWFLATVGVSPDHQGKGLGSAVVLPGVEAAERAGVPAFLETSAPRNLPFYERLGFTVTADVEVPEGPRTWCMTRKPGA | HL2-3 (+/−), | TF228.1.1.6 (+) |  |  |
| 091616-Y01 (protein, Synthetic Immune Receptor (SIR)) MALPVTALLLPLALLLHAARPDIQMTQSPSSLSASVGDTVTITCQANGYLNWYQQRRGKAPKLLIYDGSKLERGVPSRFSGRRWGQEYNLTINNLQPEDIATYFCQVYEFVVPGTRLDLKRTVAAPLEEQKLISEEDLGSGEDLKNVFPPEVAVFEPSKAEIAHTQKATLVCLATGFYPDHVELSWWVNGKEVHSGVCTDPQPLKEQPALNDSRYCLSSRLRVSATFWQNPRNHFRCQVQFYGLSENDEWTQDRAKPVTQIVSAEAWGRADCGITSASYHQGVLSATILYEILLGKATLYAVLVSALVLMAMVKRKDSRGRAKRSGSGATNFSLLKQAGDVEENPGPTSMDWIWRILFLVGAATGAHSFEQVQLLQSGAAVTKPGASVRVSCEASGYNIRDYFIHWWRQAPGQGLQWVGWINPKTGQPNNPRQFQGRVSLTRHASWDFDTFSFYMDLKALRSDDTAVYFCARQRSDYWDFDVWGSGTQVTVSSASTKGPTREQKLISEEDGSGIQNPDPAVYQLRDSKSSDKSVCLFTDFDSQTNVSQSKDSDVYITDKCVLDMRSMDFKSNSAVAWSNKSDFACANAFNNSIIPEDTFFPSSDVPCDVKLVEKSFETDTNLNFQNLSVIGFRILLLKVAGFNLLMTLRLWSSRAKRSGSGVKQTLNFDLLKLAGDVESNPGPSRGHMTEYKPTVRLATRDDVPRAVRTLAAAFADYPATRHTVDPDRHIERVTELQELFLTRVGLDIGKVWVADDGAAVAVWTTPESVEAGAVFAEIGPRMAELSGSRLAAQQQMEGLLAPHRPKEPAWFLATVGVSPDHQGKGLGSAVVLPGVEAAERAGVPAFLETSAPRNLPFYERLGFTVTADVEVPEGPRTWCMTRKPGA | HL2-3 (+/−) |  |  |  |
| 091616-X01 (protein, Synthetic Immune Receptor (SIR)) MALPVTALLLPLALLLHAARPELVLTQSPGTLSLSAGERATLSCRASQSVSSGSLAWYQQKPGQAPRLLIYGASTRATGIPDRFSGSGSGTDFTLTIGRLEPEDLAVYYCQQYGTSPYTFGQGTKLEILEEQKLISEEDLGSGEDLKNVFPPEVAVFEPSKAEIAHTQKATLVCLATGFYPDHVELSWWVNGKEVHSGVCTDPQPLKEQPALNDSRYCLSSRLRVSATFWQNPRNHFRCQVQFYGLSENDEWTQDRAKPVTQIVSAEAWGRADCGITSASYHQGVLSATILYEILLGKATLYAVLVSALVLMAMVKRKDSRGRAKRSGSGATNFSLLKQAGDVEENPGPTSMDWIWRILFLVGAATGAHSFELEQSGAEVKKPGSSVQVSCKASGGTFSMYGFNWVRQAPGHGLEWMGGIIPIFGTSNYAQKFRGRVTFTADQATSTAYMELTNLRSDDTAVYYCARDFGPDWEDGDSYDGSGRGFFDFWGQGTLVTVSSTREQKLISEEDGSGIQNPDPAVYQLRDSKSSDKSVCLFTDFDSQTNVSQSKDSDVYITDKCVLDMRSMDFKSNSAVAWSNKSDFACANAFNNSIIPEDTFFPSSDVPCDVKLVEKSFETDTNLNFQNLSVIGFRILLLKVAGFNLLMTLRLWSSRAKRSGSGVKQTLNFDLLKLAGDVESNPGPSRGHMTEYKPTVRLATRDDVPRAVRTLAAAFADYPATRHTVDPDRHIERVTELQELFLTRVGLDIGKVWVADDGAAVAVWTTPESVEAGAVFAEIGPRMAELSGSRLAAQQQMEGLLAPHRPKEPAWFLATVGVSPDHQGKGLGSAVVLPGVEAAERAGVPAFLETSAPRNLPFYERLGFTVTADVEVPEGPRTWCMTRKPGA | HL2-3 (+/−) | TF228.1.1.6 (+), |  |  |
